PMC8299219 (Cell, 2021)
Where two headings read alike, the source gives them in different places.

Experiments:
[1] = molecular target: T1, SARS-CoV-2 S ectodomain trimer, prefusion-stabilized, 2P variant (Wrapp et al., 2020) (SARS-CoV-2, Wuhan-Hu-1, UniProt P0DTC2, stabilised)
[2] = molecular target: T1, SARS-CoV-2 S ectodomain trimer, …; experiment: ELISA

B1: C81E9 (antibody, V domains shown)
VH: QVQLVESGGGVVQPGRSLRLSCAASGFTFSSYAMHWVRQAPGKGLEWVAVISYDGSNKYYADSVKGRFTISRDNSKNTLFLQMNSLRPEDTAVYYCIAARNYYYMDVWGKGTTVTVSS
VL: not shown
- binding result [1]: binds

B2: G32C5 (antibody, V domains shown)
VH: QVQLVESGGGVVQPGRSLRLSCAASGFTFSSYAMHWVRQAPGKGLEWVAVISYDGSNKYYADSVKGRFTISRDNSKNTLYLQMNSLRAEDTAVYYCARGKSGSYFGSFDYWGQGTLVTVSS
VL: not shown
- binding result [1]: binds

B3: C81H4 (antibody, V domains shown)
VH: QVQLVESGGGVVQPGRSLRLSCAASGFTFSSYGMHWVRQAPGKGLEWVAVISYDGSNKYYADSVKGRFTISRDNSKNTLCLQMNSLRAEDTAVYYCAKGRGGSYYDAFDIWGQGTMVTVSS
VL: not shown
- binding result [1]: binds

B4: G32M1 (antibody, V domains shown)
VH: QVQLVESGGGVVQPGRSLRLSCVASGFTFSSYGMHWVRQAPGKGLEWVAVIWYDGSNKYYADSVKGRFTISRDNSKNTLYLQMNSLRAEDTAVYYCAREYRSSWYNWFDSWGQGTLVTVSS
VL: SYELTQPPSVSVSPGQTARITCSGDALPKQYAYWYQQKPGQAPVMVIYKDSERPSGIPERFSGSSSGTTVTLTISGVQAEDEADYYCQSADSSGTSYVFGTGTKVTVL
- binding result [1]: binds

B5: C83B10 (antibody, V domains shown)
VH: QVQLVESGGGVVQPGRSLRLSCAASGFTFSIYAIHWVRQAPGKGLEWVALISYDGSNKYYADSVKGRFTISRDNSKNTLYLQMNSLRAEDTAVYYCARARGGSYSDAFDIWGQGTMVTVSS
VL: not shown
- binding result [1]: binds

B6: G32M2 (antibody, V domains shown)
VH: QVQLVESGGGVVQPGRSLRLSCAASGFTFSSYAMHWVRQAPGKGLEWVAVISYDGNNKYYADSVKGRFTISRDNSKNTLYLQMNSLRAEDTAMYYCARAKGGGYYYGMDVWGQGTTVTVSS
VL: SYELTQPPSVSVAPGQTARITCGGNNIGSKSVHWYQQKPGQAPVLVVYDDSDRPSGIPERFSGSNSGNTATLTISRVEAGDEADYYCQVWDSSSDPYWVFSGGTKLTVL
- binding result [1]: binds

B7: C81C3 (antibody, V domains shown)
VH: EVQLVQSGAEVKKPGESLRISCKGSGYSFTSYWISWVRQMPGKGLEWMGRIDPSDSYTNYSPSFQGHVTISADKSISTAYLQWSSLKASDTAMYYCAIHGYYDSSGYYLPHGFDIWGQGTMVTVSS
VL: SYELTQPPSVSVAPGKTARITCGGNNIGSTSVHWYQQKPGQAPVLVVYDDGDRPSGIPERFSGSNSGNTATLTISRVEAGDEADYYCQVWDSSSDPNWVFGGGTKLTVL
- binding result [1]: binds

B8: C30A8 (antibody, V domains shown)
VH: QVQLVESGGGLVKPGGSLRLSCAASGFTFSDSYMSWIRQAPGKGLEWVSYISSSSSYTNYADSVKGRFTISRDNAKNSLYLQMNSLRAEDTAVYYCARDRVPPYSSGWYYFDYWGQGTLVTVSS
VL: QSALTQPASVSGSPGQSITISCTGTSSDVGGYNYVSWYQQHPGKAPKLMIYEVSNRPSGVSNRFSGSKSDNTASLTISGLQAEDEADYYCSSYTSSSTYVFGTGTKVTVL
- binding result [1]: binds

B9: G32L8 (antibody, V domains shown)
VH: EVQLVQSGAEVKKPGESLKISCKGSGYSFTSYWIGWVRQMPGKGLEWMGIIYPGDSDTRYSPSFQGQVTISADKSISTAYLQWSSLKASDTAMYYCARRYAVYSSGWYYWYFDLWGRGTLVTVSS
VL: not shown
- binding result [1]: binds

B10: C12I7 (antibody, V domains shown)
VH: QVQLQESDPGLVQPSETLSLTCTVSRGSISSYYWSWIRQPPGKGLEWIGYIYYSGSTNYNPSLKSRVTISVDTSKNQFSLKLSSVTAADTAVYYCARVGYYDSSAYLKLGSIDYWGQGILVTVSS
VL: not shown
- binding result [1]: binds

B11: C102A5 (antibody, V domains shown)
VH: QVQLVESGGGVVQPGRSLRLSCAASGFTFSTYAMHWVRQAPGKGLEWVAVISYDGSNKYYADSVKGRFTISRDNSKNTLYLQMNSLRAEDTAVYYCARDLGTYRWFDPWGQGTLVTVSS
VL: DIQMTQSPSSVSASVGDRVTITCRASQGISSWLAWYQQKPGKAPKLLIYAASSLQSGVPSRFSGSGSGTDFTLTISSLQSEDFATYYCQQANSFPSFTFGPGTKVEIK
- binding result [1]: binds

B12: C12B5 (antibody, V domains shown)
VH: QVQLVESGGGVVQPGRSLRLSCAASGFTFSSYGMHWVRQAPGKGLEWVAVIWYDGSNKYYADSVKGRFTISRDNSKNTLYLQMNSLRAEDTAVYYCARDLAVATQNDYWGQGTLVTVSS
VL: SYELTQPPSVSVSPGQTARITCSGDALPKKYAYWYQQKSGQAPVLVIYEDGKRPSGIPERFSGSSSGTMATLTISGAQVEDEADYYCYSTDSSGNRWVFGGGTKLTVL
- binding result [1]: binds

B13: C81E12 (antibody, V domains shown)
VH: QVQLVESGGGVVQPGRSLRLSCAASGFTFSSYGMHWVRQAPGKGLEWVAVIWYDGSNKYYADSVKGRFTISRDNSKNTLYLQMNSLRAEDTAVYYCARDLRLGDHFDYWGQGTLVTVSS
VL: SYELTQPPSVSVSPGQTARITCSGDALPKKYAYWYQQKSGQAPVLVIYEDSKRPSGIPERFSGSSSGTMATLTISGAQVEDEADYYCYSTDSSGNHRVFGGGTKLTVL
- binding result [1]: binds

B14: C30B10 (antibody, V domains shown)
VH: QVQLVESGGGVVQPGRSLRLSCAASGFTFSSYGMHWVRQAPGKGLEWVAVIWYDGSNKYYADSVKGRFTISRDNSKNTLYLQMNSLRAEDTAVYYCARDYPFSGSYYGDAFDIWGQGTMVTVSS
VL: SYELTQPPSVSVSPGQTARITCSGDALPKKYAYWYQQKSGQAPVLVIYEDSKRPSGIPERFSGSSSGTMATLTISGAQVEDEADYYCYSTDSSGNRWVFGGGTKLTVL
- binding result [1]: binds

B15: G32B4 (antibody, V domains shown)
VH: not shown
VL: SYELTQPPSVSVSPGQTARITCSGDALPKKYAYWYQQKSGQAPVLVIYEDSKRPSGIPERFSGSSSGTMATLTISGAQVEDEADYYCYSTDSSGNLWVFGGGTKLTVL
- binding result [1]: binds

B16: C93E12 (antibody, V domains shown)
VH: QVQLVEAGGGVVQPGTSLRLSCAASGFTFSNYAIQWVRQAPGKGPEWVALISYDGSNKYYADPVKGRFTLSRDNSKNTLYLQMNSLRAEDTAVYYCARGIRGGYNDAFDIWGQGTMVTVSS
VL: DIQLTQSPSFLSASVGDRVTITCRASQGISSYLTWYQQKPGKAPKLLIYAASTLQSGVPSRFSGSGSGTEFTLTISSLQPEDFATYYCQQVTSYPITFGQGTRLEIK
- binding result [1]: binds

B17: G32B2 (antibody, V domains shown)
VH: QLQLQESGPGLVKPSETLSLTCTVSGGSISSSSYYWGWIRQPPGKGLEWIGSIYYSGSTYYNPSLKSRVTISVDTSKNQFSLKLSSVTAADTAVYYCARTVASYYDSSAYLTLGYFDYWGQGTLVTVSS
VL: SYELTQPPSVSVSPGQTARITCSGDALPKKYAYWYQQKSGQAPVLVIYEDSKRPSGIPERFSGSSSGTMATLTISGAQVEDEADYYCYSTDSSGNHNYVFGTGTKVTVL
- binding result [1]: binds

B18: mAb 4A8 (published; Chi et al., 2020) (antibody, V domains shown)
VH: QVQLVESGAEVKKPGASVKVSCKVSGYTLTELSMHWVRQAPGKGLEWMGGFDPEDGETMYAQKFQGRVTMTEDTSTDTAYMELSSLRSEDTAVYYCATSTAVAGTPDLFDYYYGMDVWGQGTTVTVSS
VL: EIVMTQSPLSSPVTLGQPASISCRSSQSLVHSDGNTYLSWLQQRPGQPPRLLIYKISNRFSGVPDRFSGSGAGTDFTLKISRVEAEDVGVYYCTQATQFPYTFGQGTKVDIK
- binding result [2]: binds

B19: C882C6 (antibody, V domains shown)
VH: QVQLVESGGGVVQPGRSLRLSCAASGFTFSNFAIHWVRQAPGKGLEWVAVVSYDGGNKYYADSVKGRFTISRDNSKNTLYLQMNSLRAEDTSVYYCARSGSGNYYGWFDPWGQGTLVTVSS
VL: QSALTQPASVSGSPGQSITISCTGTSSDVGSYNLVSWYQQHPGKAPKLMIYEGSKRPSGVSNRFSGSKSGNTASLTISGLQAEDEADYYCCSYAGSSTWVFGGGTKLTVL
- binding result [1]: binds
